Measurements from the supplement of paper PMC10567573.

B1: DULLARD (parent)
chain: LVVFTASMEIYGSAVADKLDNSRS
B2: ALDH8A1 (parent)
chain: RVAKKLQSGLVWTNCWLIRELNLP

Variants of: B1
Assay: protein stability index of a GFP-peptide fusion (GPS, HEK-293T) (PSI 1-6); higher = more stable
Conditions: c terminus: a fixed tail appended
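Also: lentivirally expressed fusions sorted by FACS into six bins by GFP to DsRed ratio, PSI derived from sequencing read proportions per bin multiplied by bin number.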

Variant	protein stability index
LVVFTASMEIYGSAVADKLDNGRS [S22G]	2.5
LVVFTASMEIYGSAVADKLDNIRS [S22I]	2.37
LVVFTASMEIYGSAVADKLDNKRS [S22K]	2.58
LVVFTASMEIYGSAVADKLDNMRS [S22M]	2.31
LVVFTASMEIYGSAVADKLDNPRS [S22P]	2.62
LVVFTASMEIYGSAVADKLDNRRS [S22R]	3.98
LVVFTASMEIYGSAVADKLDNTRS [S22T]	1.89
LVVFTASMEIYGSAVADKLDNYRS [S22Y]	2.24
LVVFTASMEIYGSAVADKLDNSCS [R23C]	2.03
LVVFTASMEIYGSAVADKLDNSDS [R23D]	1.75
LVVFTASMEIYGSAVADKLDNSES [R23E]	2.94
LVVFTASMEIYGSAVADKLDNSFS [R23F]	2.67
LVVFTASMEIYGSAVADKLDNSGS [R23G]	1.66
LVVFTASMEIYGSAVADKLDNSHS [R23H]	2.77
LVVFTASMEIYGSAVADKLDNSKS [R23K]	1.71
LVVFTASMEIYGSAVADKLDNSPS [R23P]	2.61
LVVFTASMEIYGSAVADKLDNSQS [R23Q]	1.86
LVVFTASMEIYGSAVADKLDNSSS [R23S]	2.05
LVVFTASMEIYGSAVADKLDNSTS [R23T]	2.68
LVVFTASMEIYGSAVADKLDNSVS [R23V]	2.42
LVVFTASMEIYGSAVADKLDNSRA [S24A]	2.29
LVVFTASMEIYGSAVADKLDNSRC [S24C]	2.69
LVVFTASMEIYGSAVADKLDNSRE [S24E]	2.29
LVVFTASMEIYGSAVADKLDNSRH [S24H]	2.46
LVVFTASMEIYGSAVADKLDNSRI [S24I]	1.3
LVVFTASMEIYGSAVADKLDNSRL [S24L]	2.2
LVVFTASMEIYGSAVADKLDNSRQ [S24Q]	2.15
LVVFTASMEIYGSAVADKLDNSRR [S24R]	1.88
LVVFTASMEIYGSAVADKLDNSRT [S24T]	2.71

Variants of: B2
Assay: as above
Conditions: c terminus: a fixed tail appended

Variant	protein stability index
CVAKKLQSGLVWTNCWLIRELNLP [R1C]	1.74
DVAKKLQSGLVWTNCWLIRELNLP [R1D]	2.04
FVAKKLQSGLVWTNCWLIRELNLP [R1F]	3.15
HVAKKLQSGLVWTNCWLIRELNLP [R1H]	2.09
KVAKKLQSGLVWTNCWLIRELNLP [R1K]	3.98
LVAKKLQSGLVWTNCWLIRELNLP [R1L]	5
NVAKKLQSGLVWTNCWLIRELNLP [R1N]	3.5
PVAKKLQSGLVWTNCWLIRELNLP [R1P]	2.46
TVAKKLQSGLVWTNCWLIRELNLP [R1T]	3.94
VVAKKLQSGLVWTNCWLIRELNLP [R1V]	2.44
RDAKKLQSGLVWTNCWLIRELNLP [V2D]	1.92
REAKKLQSGLVWTNCWLIRELNLP [V2E]	1.9
RHAKKLQSGLVWTNCWLIRELNLP [V2H]	4.07
RIAKKLQSGLVWTNCWLIRELNLP [V2I]	3.68
RKAKKLQSGLVWTNCWLIRELNLP [V2K]	1.36
RNAKKLQSGLVWTNCWLIRELNLP [V2N]	2.49
RPAKKLQSGLVWTNCWLIRELNLP [V2P]	2.08
RSAKKLQSGLVWTNCWLIRELNLP [V2S]	3.15
RTAKKLQSGLVWTNCWLIRELNLP [V2T]	2.33
RWAKKLQSGLVWTNCWLIRELNLP [V2W]	2.54
RVEKKLQSGLVWTNCWLIRELNLP [A3E]	3.61
RVIKKLQSGLVWTNCWLIRELNLP [A3I]	3.48

Variant	protein stability index
RVMKKLQSGLVWTNCWLIRELNLP [A3M]	3.44
RVPKKLQSGLVWTNCWLIRELNLP [A3P]	3.51
RVRKKLQSGLVWTNCWLIRELNLP [A3R]	2.03
RVWKKLQSGLVWTNCWLIRELNLP [A3W]	2.5
RVYKKLQSGLVWTNCWLIRELNLP [A3Y]	1.16
RVACKLQSGLVWTNCWLIRELNLP [K4C]	1.05
RVAFKLQSGLVWTNCWLIRELNLP [K4F]	2.22
RVAHKLQSGLVWTNCWLIRELNLP [K4H]	2.45
RVALKLQSGLVWTNCWLIRELNLP [K4L]	1.98
RVAMKLQSGLVWTNCWLIRELNLP [K4M]	2.82
RVANKLQSGLVWTNCWLIRELNLP [K4N]	4.07
RVARKLQSGLVWTNCWLIRELNLP [K4R]	2.29
RVAWKLQSGLVWTNCWLIRELNLP [K4W]	3.14
RVAKCLQSGLVWTNCWLIRELNLP [K5C]	3.67
RVAKHLQSGLVWTNCWLIRELNLP [K5H]	3.18
RVAKILQSGLVWTNCWLIRELNLP [K5I]	2.13
RVAKLLQSGLVWTNCWLIRELNLP [K5L]	3.02
RVAKMLQSGLVWTNCWLIRELNLP [K5M]	3.19
RVAKQLQSGLVWTNCWLIRELNLP [K5Q]	1.34
RVAKTLQSGLVWTNCWLIRELNLP [K5T]	2.88
RVAKVLQSGLVWTNCWLIRELNLP [K5V]	4.01
RVAKYLQSGLVWTNCWLIRELNLP [K5Y]	3.1

Variant	protein stability index
RVAKKAQSGLVWTNCWLIRELNLP [L6A]	2.04
RVAKKCQSGLVWTNCWLIRELNLP [L6C]	3.03
RVAKKEQSGLVWTNCWLIRELNLP [L6E]	2.26
RVAKKKQSGLVWTNCWLIRELNLP [L6K]	2.56
RVAKKMQSGLVWTNCWLIRELNLP [L6M]	3.2
RVAKKPQSGLVWTNCWLIRELNLP [L6P]	1.95
RVAKKQQSGLVWTNCWLIRELNLP [L6Q]	2.86
RVAKKTQSGLVWTNCWLIRELNLP [L6T]	2.31
RVAKKLKSGLVWTNCWLIRELNLP [Q7K]	2.17
RVAKKLLSGLVWTNCWLIRELNLP [Q7L]	4.65
RVAKKLMSGLVWTNCWLIRELNLP [Q7M]	1.85
RVAKKLNSGLVWTNCWLIRELNLP [Q7N]	2.29
RVAKKLPSGLVWTNCWLIRELNLP [Q7P]	2.97
RVAKKLWSGLVWTNCWLIRELNLP [Q7W]	2.85
RVAKKLYSGLVWTNCWLIRELNLP [Q7Y]	2.48
RVAKKLQAGLVWTNCWLIRELNLP [S8A]	3.67
RVAKKLQEGLVWTNCWLIRELNLP [S8E]	2.9
RVAKKLQHGLVWTNCWLIRELNLP [S8H]	1.63
RVAKKLQIGLVWTNCWLIRELNLP [S8I]	1.71
RVAKKLQTGLVWTNCWLIRELNLP [S8T]	1.94
RVAKKLQVGLVWTNCWLIRELNLP [S8V]	3.65
